Assay results: US8138140B2, “Self-assembling peptide amphiphiles and related methods for growth factor delivery” (Northwestern University, priority 2003, dated 2012)
Ends that are not written are not given here. Peptide text beside a SMILES is read from it. * marks the point of attachment. Palmitoyl = CCCCCCCCCCCCCCCC(=O)*; NH(CH2)11CH3 = CCCCCCCCCCCCN*

Legend:
[1] = Acid-base (pKa) titrations of PA aggregates; conditions: 3 mM, aggregated state
Experimental: Acid-Base titrations. pKa titrations were preformed on PAs 1-4 in the range of pH 2-10 with a Fisher Accumet pH meter at a concentration of 3.5 mg/mL in 100 mM KCl. For the acidic PAs 2 and 4, 0.1N KOH was added in 1-5 μL increments, starting at low pH, whereas for the basic PAs 1 and 3, 0.1N HCl was added in 1-5 μL increments, starting at a high pH.
pKa titrations of aggregates of molecules 1-4 were carried out at a concentration of 3 mM. All titrations were started at a pH where the molecules were already in their aggregated state in order to avoid kinetic effects due to self-assembly.

rh-TGF-β1 = molecular target: T1, rh-TGF-β1 (Homo sapiens, UniProt P01137); experiment: ELISA screening of phage display clones, relative binding strengths; design: key to relative binding strength of selected clone (numeric coding): highest (1); 2: in decreasing binding strength from highest (1) to lowest (4); 3: in decreasing binding strength from highest (1) to lowest (4); lowest (4); conditions: for relative binding strength of selected clone (numeric coding): TGF-β1 coated plates, ELISA
T1 construct: purchased Peprotech
Source text: (§1) Phage display is typically used to find receptor-blocking peptides, i.e. sequences with high binding constants. To transfer a growth factor from the PA binding site to the cell receptor, an extremely high binding constant is not required and might even be unfavorable. Therefore, the 7-mer commercial phage library was elected over the […], aiming at intermediate binding strengths. Growth factors were physisorbed onto 96-well plates and subsequently exposed to the phage library. After incubation at room temperature for 60 minutes, the unbound phage was removed by rinsing with detergent solution. Bound phage was subsequently eluted by incubating with a growth factor solution for 60 minutes. The recovered phages were amplified for 4 h in E Coli at 37° C. and the panning was repeated two more times. In subsequent panning rounds, the stringency was increased by raising the detergent concentration and reducing the exposure time to the library. The final phage population was plated and the DNA of 10 clones of colonies containing only one phage type were sequenced. Next, ELISA screening was used to test for false positives and determine relative binding strengths of the selected clones. […] (See Table 1, below.)
(§2) Phage display was performed with the Ph.D. 7 kit (New England […]). Fifty microliters of diluted M13-phage library (containing 2×10^9 phages and all possible 7-mer sequences) were added to 96-well microtiter plates, which had been exposed to 50 μl 10 μg/ml growth factor (peprotech) solution for 18 h at 0° C. The plates were blocked for 1 h then incubated at room temperature for 60 minutes with gentle agitation. Unbound phage was removed by rinsing with TBS/Tween-20 (0.1% v/v Tween-20). Bound phage was subsequently eluted by incubating with 50 μl growth factor solution for 60 minutes. The presence of binding phage was determined by serial dilution of the phages and subsequent plating with E. Coli on agar plates. The number of plaques formed can be related to the number of phages in the original mixture. The phages were subsequently amplified for 4 h in E. Coli at 37° C. In subsequent panning rounds, the concentration of Tween-20 was raised to 0.5% and the binding and elution times were decreased and increased, respectively, to increase the stringency of the selection process. After three rounds of panning, the recovered phage mixture is diluted and plated with bacteria on agar. Subsequently, plaques are isolated containing a single DNA sequence. After purification, ten clones were sequenced. Next, ELISA screening was used to eliminate false positives and determine relative binding strengths of the selected clones. Each clone was incubated for 1 h on growth factor coated microtiter plates, the plates were rinsed with TBS/Tween-20 and subsequently HRP-conjugated anti-M13 antibody (Amersham Biosciences) was incubated for 1 h. After addition of ABTS, the absorbance at 450 nm was measured after 30 minutes to determine the relative binding strengths of the isolated clones. The strongest binder was subsequently selected.

mesenchymal stem cells = experiment: Mesenchymal stem cells cultured in PA gels with TGF-β1, lineage markers; format: cell-based, Human; conditions: TGF-β1 up to 20 ng/ml, 10 days
rh-BMP-2 = molecular target: T2, rh-BMP-2 (Homo sapiens, UniProt P12643); experiment: ELISA screening of phage display clones, relative binding strengths; design: key to relative binding strength of selected clone (numeric coding): highest (1); 2: in decreasing binding strength from highest (1) to lowest (4); 3: in decreasing binding strength from highest (1) to lowest (4); lowest (4); conditions: for relative binding strength of selected clone (numeric coding): BMP-2 coated plates, ELISA
T2 construct: purchased Peprotech
T2 sequence (P12643 283-396): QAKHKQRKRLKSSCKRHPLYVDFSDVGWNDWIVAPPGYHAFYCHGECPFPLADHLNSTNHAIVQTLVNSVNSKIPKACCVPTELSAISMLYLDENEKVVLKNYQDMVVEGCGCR
Source text: as §1, §2

[2] = test system: vascular endothelial growth factor (VEGF); experiment: Phage display binding sequences (12-mer kit); design: key: * denotes the strongest binders; conditions: 12-mer phage display kit
Experimental: (§3) Numerous binding sequences were determined for vascular endothelial growth factor (VEGF), both with 7- and 12-mer phage display kit, basic fibroblast growth factor (FGF-2), neurotrophin-3 (NT-3) and laminin-5; * denotes the strongest binders: […]

laminin-5 = experiment: Phage display binding sequences; design: key: * denotes the strongest binders
Experimental: as §3

[3] = phage display and ELISA screening

T1 sequence (P01137 279-390 limits assumed): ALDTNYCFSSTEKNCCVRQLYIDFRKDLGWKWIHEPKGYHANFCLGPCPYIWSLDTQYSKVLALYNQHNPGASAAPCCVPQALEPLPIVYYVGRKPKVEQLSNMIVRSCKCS

Compound | relative binding strength of selected clone (numeric coding) (rh-TGF-β1) | relative binding strength of selected clone (numeric coding) (rh-BMP-2) | further results
CCCCCCCCCCCCCCCC(=O)N[C@H](C(=O)N[C@H](C(=O)N[C@H](C(=O)N[C@@H](C)C(=O)N[C@@H](C)C(=O)N[C@@H](C)C(=O)N[C@@H](CCC(=O)O)C(=O)N[C@@H](CCC(=O)O)C(=O)N[C@@H](CCC(=O)O)C(=O)O)C(C)C)C(C)C)C(C)C [PA 2] (Palmitoyl-VVVAAAEEE-OH) | – | – | apparent pKa of aggregates (titration curve) [1]: complex curves with transitions occurring over wide ranges
AWKSVTA | AWKSVTA (3) | – | –
Asp(CONHC12)-Val-Val-Val-Ala-Ala-Ala-Glu-Glu-Glu-NH2 (D(NH(CH2)11CH3)VVVAAAEEE-NH2; N-terminus assumed; SMILES CCCCCCCCCCCCNC(=O)C[C@H](N)C(=O)N[C@H](C(=O)N[C@H](C(=O)N[C@H](C(=O)N[C@@H](C)C(=O)N[C@@H](C)C(=O)N[C@@H](C)C(=O)N[C@@H](CCC(=O)O)C(=O)N[C@@H](CCC(=O)O)C(=O)N[C@@H](CCC(=O)O)C(N)=O)C(C)C)C(C)C)C(C)C) [PA 4] | – | – | apparent pKa of aggregates (titration curve) [1]: complex curves with transitions occurring over wide ranges
Asp(CONHC12)-Val-Val-Val-Ala-Ala-Ala-Lys-Lys-Lys-Ser-Gly-Gly-G-ly-Leu-Pro-Leu-Gly-Gln-Ser-His-NH2 [PA 10] | – | – | Collagen II expression (mesenchymal stem cells): higher for the binding gels; α-smooth muscle actin expression (mesenchymal stem cells): higher in the binding gels than in the nonbinding gels
DVSPAYH | – | DVSPAYH (3) | –
GKYPPTS | GKYPPTS (3) | – | –
KQALTQT | – | KQALTQT (3) | –
KVPPANT | – | KVPPANT (3) | –
LHYPFMT | – | LHYPFMT (3) | –
LPLGNSH | LPLGNSH (1) | – | binding to TGF-β1 (in words) (rh-TGF-β1; [3]): best binding epitope
LPSPIQK | LPSPIQK (2) | – | –
LRNYSHS | LRNYSHS (3) | – | –
PAPRWIH | PAPRWIH (3) | – | –
PFDPPVR | – | PFDPPVR (2) | –
PGPTVQG | – | PGPTVQG (2) | –
PIQPDER | – | PIQPDER (2) | –
PLTPSALLPIFE | – | – | strongest binders [2]: PLTPSALLPIFE*
PTPLKVRLHSYN | – | – | strongest binders [2]: PTPLKVRLHSYN*
QQTQAQH | – | QQTQAQH (4) | –
RTTSPTA | RTTSPTA (3) | – | –
RVSTWDT | RVSTWDT (3) | – | –
RYHPHLH | – | – | strongest binders (laminin-5): RYHPHLH*
VSILSTIPNSMT | – | – | strongest binders [2]: VSILSTIPNSMT*
VYRHLPT | VYRHLPT (2) | – | –
WPALFTH | – | WPALFTH (3) | –
YPVHPST | – | YPVHPST (1) | binding to BMP-2 (in words) (rh-BMP-2; [3]): best binding epitope
